This note sets out measurements from IntAct's records for PubMed 21920025.

Test [1] concerns the target prio_bovin PRNP (UniProt P10279).
In test [2] the target is prio_human PRNP (UniProt P04156).

“Major prion protein (Homo sapiens) (from UniProt P04156) M129V”: the “effect of a mutation on the interaction” value in test [1] is recorded as “decreasing interaction”. Take “Major prion protein (Bos taurus (Bovine)) (from UniProt P10279) L149I”: in test [2], the “effect of a mutation on the interaction” value is “decreasing interaction”.
